Source: paper PMC4858292, “Determination of the CD148-Interacting Region in Thrombospondin-1” (PLoS ONE, 2016)

Biological target: the molecule itself
Assay: SDS-PAGE in non-reducing and reducing conditions; purified fragments separated in non-reducing and reducing (50 mM DTT) conditions; colloidal blue stain and anti-Myc immunoblot

Row | Protein | stoichiometry N
1 | Trimeric TSP1 fragment, oligomerization domain + procollagen + type 1 repeats (aa 261–547) (domain or fragment, human, UniProt P07996 261-547, looked up, Subcloned into HindIII and XbaI sites of the APtag-5 vector; also called trimeric TSP1 fragment containing the procollagen domain and type 1 repeats; trimeric TSP1 fragment that contains all three type 1 repeats; source: HEK293E suspension culture, transient transfection, purified from culture supernatant (HisTrap Excel); not shown: Myc, C-terminal, kept) HKTKDLQAICGISCDELSSMVLELRGLRTIVTTLQDSIRKVTEENKELANELRRPPLCYHNGVQYRNNEEWTVDSCTECHCQNSVTICKKVSCPIMPCSNATVPDGECCPRCWPSDSADDGWSPWSEWTSCSTSCGNGIQQRGRSCDSLNNRCEGSSVQTRTCHIQECDKRFKQDGGWSHWSPWSSCSVTCGDGVITRIRLCNSPSPQMNGKPCEGEARETKACKKDACPINGGWGPWSPWDICSVTCGGGVQKRSRLCNNPTPQFGGKDCVGDVTENQICNKQDCP | 3
2 | Trimeric TSP1 fragment, oligomerization domain + procollagen + 1^st & 2^nd type 1 repeats (aa 261–490) (domain or fragment, human, UniProt P07996 261-490, looked up, thrombospondin-1 (TSP1), human, oligomerization domain + procollagen + 1st and 2nd type 1 repeats, aa 261-490; Subcloned into HindIII and XbaI sites of the APtag-5 vector; source: HEK293E suspension culture, transient transfection, purified from culture supernatant (HisTrap Excel); not shown: Myc, C-terminal, kept) HKTKDLQAICGISCDELSSMVLELRGLRTIVTTLQDSIRKVTEENKELANELRRPPLCYHNGVQYRNNEEWTVDSCTECHCQNSVTICKKVSCPIMPCSNATVPDGECCPRCWPSDSADDGWSPWSEWTSCSTSCGNGIQQRGRSCDSLNNRCEGSSVQTRTCHIQECDKRFKQDGGWSHWSPWSSCSVTCGDGVITRIRLCNSPSPQMNGKPCEGEARETKACKKDACP | 3
3 | Trimeric TSP1 fragment, oligomerization domain + procollagen (aa 261–373) (domain or fragment, human, UniProt P07996 261-373, looked up, thrombospondin-1 (TSP1), human, oligomerization domain + procollagen, aa 261-373; Subcloned into HindIII and XbaI sites of the APtag-5 vector; also called trimeric TSP1 fragment containing the procollagen domain alone; source: HEK293E suspension culture, transient transfection, purified from culture supernatant (HisTrap Excel); not shown: Myc, C-terminal, kept) HKTKDLQAICGISCDELSSMVLELRGLRTIVTTLQDSIRKVTEENKELANELRRPPLCYHNGVQYRNNEEWTVDSCTECHCQNSVTICKKVSCPIMPCSNATVPDGECCPRCW | 3
4 | Trimeric TSP1 fragment, oligomerization domain + procollagen and 1^st type 1 repeat (aa 261–429) (domain or fragment, human, UniProt P07996 261-429, looked up, thrombospondin-1 (TSP1), human, oligomerization domain + procollagen + 1st type 1 repeat, aa 261-429; Subcloned into HindIII and XbaI sites of the APtag-5 vector; also called trimeric TSP1 fragment containing the procollagen domain and the 1st type 1 repeat; source: HEK293E suspension culture, transient transfection, purified from culture supernatant (HisTrap Excel); not shown: Myc, C-terminal, …) HKTKDLQAICGISCDELSSMVLELRGLRTIVTTLQDSIRKVTEENKELANELRRPPLCYHNGVQYRNNEEWTVDSCTECHCQNSVTICKKVSCPIMPCSNATVPDGECCPRCWPSDSADDGWSPWSEWTSCSTSCGNGIQQRGRSCDSLNNRCEGSSVQTRTCHIQECD | 3
